Data as given in paper PMC4077652, “An Unstable Th Epitope of P. falciparum Fosters Central Memory T Cells and Anti-CS Antibody Responses” (PLoS ONE, 2014).

B1: unnamed (parent)
chain 1: QNSLSTEWSPCSVT
chain 2: not shown
chain 3: not shown

Variants of: B1
Assay: binding inhibition (competition) assay with biotin-labeled HA 306-318
Conditions: peptides tested at 0 to 100 µM, read off a plot

chain 1 N2A and chain 1 E7A are within 1.5-fold of each other in IC50: 2700 nM for the first, 3500 nM for the second.

Going from chain 1 T6A to chain 1 S12A, the IC50 falls from 1300 nM to 800 nM (1.6-fold).

chain 1 W8A and chain 1 Q1A are within 1.5-fold of each other in IC50: 1500 nM for the first, 1200 nM for the second.

chain 1 C11A and chain 1 T14A are the same in IC50: 800 nM for the first, 800 nM for the second.

Compared with chain 1 V13A, chain 1 S3A is 2.2-fold higher in IC50: 500 nM for the first, 1100 nM for the second.

Compared with chain 1 S5A, chain 1 P10A is 8.2-fold higher in IC50: 950 nM for the first, 7800 nM for the second.
